Reference: patent US20120240246A1, “Variant Calpastatins and Variant Calpains for Modulating the Activity or Stability of Calpain” (St. Jude Children's Research Hospital, priority 2009, published 2012)
Where a chain is given by its changes, count along the chain named. In names and notes the source's numbering stands. One block for each molecule: values may come before it.

Columns and labels:
[1] = system: calpain; details: human sequence; Betts & Anagli (2004); cited from earlier work
[2] = biological target: calpastatin repeat 1 K176Δ mutant (UniProt P27321)
[3] = biological target: calpastatin repeat 1 E177Δ mutant (UniProt P27321)
[4] = biological target: calpastatin repeat 1 K176/E177Δ mutant (UniProt P27321)
[5] = biological target: protease core from µ-calpain (µI-II) (UniProt P97571); assay: cell-based or functional assay
[6] = biological target: T1, m-calpain (Rattus norvegicus, UniProt Q07009); assay: Calpastatin inhibition assay, hydrolysis by m-calpain; assay type: biochemical; details: for IC50 values toward m-calpain (in words): derived from initial rate analysis
T1 construct: diminishing activity >1,000-fold compared to full-length m-calpain; His6 (C); made in house; host or cells: E. coli
T1 sequence (Q07009 1-700): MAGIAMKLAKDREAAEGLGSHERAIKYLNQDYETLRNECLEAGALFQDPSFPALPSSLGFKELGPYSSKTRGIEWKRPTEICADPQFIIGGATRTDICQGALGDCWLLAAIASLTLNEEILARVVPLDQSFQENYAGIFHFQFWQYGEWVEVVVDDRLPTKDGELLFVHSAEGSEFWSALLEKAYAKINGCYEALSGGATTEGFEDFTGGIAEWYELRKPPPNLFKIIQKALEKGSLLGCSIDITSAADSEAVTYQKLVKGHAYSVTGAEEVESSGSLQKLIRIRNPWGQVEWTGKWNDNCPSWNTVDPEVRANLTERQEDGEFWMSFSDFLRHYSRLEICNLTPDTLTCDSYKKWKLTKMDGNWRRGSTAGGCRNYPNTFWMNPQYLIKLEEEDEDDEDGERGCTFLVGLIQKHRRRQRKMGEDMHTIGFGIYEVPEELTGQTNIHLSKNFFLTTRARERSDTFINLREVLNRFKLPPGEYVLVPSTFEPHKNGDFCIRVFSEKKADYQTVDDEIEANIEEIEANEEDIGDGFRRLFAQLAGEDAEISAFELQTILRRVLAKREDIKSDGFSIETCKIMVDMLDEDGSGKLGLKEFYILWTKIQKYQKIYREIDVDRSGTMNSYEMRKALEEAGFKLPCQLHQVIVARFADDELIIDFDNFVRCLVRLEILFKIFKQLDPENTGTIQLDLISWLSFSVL
T1 sequence (Q64537 87-270 partner limits assumed): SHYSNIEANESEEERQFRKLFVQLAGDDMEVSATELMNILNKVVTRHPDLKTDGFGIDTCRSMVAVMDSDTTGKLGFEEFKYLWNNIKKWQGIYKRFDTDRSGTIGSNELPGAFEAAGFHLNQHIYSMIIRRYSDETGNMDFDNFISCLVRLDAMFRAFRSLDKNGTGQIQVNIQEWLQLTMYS
Experimental: (§1) Calpastatin Inhibition Assays. Hydrolysis assays by m-calpain (1 nM or 20 nM), m-calpain mutants (1 nM) and μI-II (1.25-2.5 μM) were performed in 100-μl volumes containing 50 mM HEPES (pH 7.5), 200 mM NaCl, 1 mM DTT, various concentrations of substrate (0-1.5mM SLY-MCA (Sigma) or 0-50 μg/ml BODIPY-casein (Invitrogen)) and increasing inhibitor concentrations: 0-50 nM wild-type or mutant full-length calpastatin, fragments AB and BC, 0-20 μM peptide B1 for m-calpain, and 0-750 μM peptide B1 for μI-II. Duplicates or triplicates were performed for each condition in 96-well plates using a Molecular Devices microplate reader.

[7] = biological target: T2, μI-II (protease core from μ-calpain) (Rattus norvegicus, UniProt P97571); assay: Calpastatin inhibition assay, hydrolysis by μI-II; assay type: biochemical; details: mean ±s.e.m.
T2 construct: the protease core from μ-calpain (μI-II) were expressed in E. coli; made in house; host or cells: E. coli
Experimental: as §1

[8] = biological target: m-calpain (catalytically active heterodimer used in hydrolysis and autolysis assays) (rat), Q07009; assay: cell-based or functional assay
[9] = system: m-calpain; assay: Hydrolysis activity of m-calpain mutants at the DI-II-DIII interface; assay type: biochemical, rat; details: Ala substitution in DIII of 80 kDa subunit
Experimental: as §1

[10] = system: heterodimeric calpains; details: Wendt, et al. (2004); cited from earlier work
[11] = biological target: protease core from µ-calpain (µI-II) (UniProt P97571 29-356); assay: cell-based or functional assay
protease core from µ-calpain (µI-II) (UniProt P97571 29-356), sequence (P97571 29-356 limits assumed): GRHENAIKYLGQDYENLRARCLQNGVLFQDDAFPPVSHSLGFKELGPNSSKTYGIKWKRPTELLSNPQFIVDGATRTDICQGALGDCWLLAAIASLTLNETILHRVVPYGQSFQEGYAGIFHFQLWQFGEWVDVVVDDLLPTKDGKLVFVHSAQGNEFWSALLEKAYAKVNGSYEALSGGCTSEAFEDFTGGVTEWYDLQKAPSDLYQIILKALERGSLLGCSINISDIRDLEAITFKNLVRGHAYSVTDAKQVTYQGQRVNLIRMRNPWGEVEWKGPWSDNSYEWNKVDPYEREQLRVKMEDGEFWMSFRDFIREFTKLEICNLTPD

protease core from µ-calpain (µI-II) (UniProt P97571), sequence (P97571 29-356 limits assumed): as above
T2 sequence (P97571 55-354 limits assumed): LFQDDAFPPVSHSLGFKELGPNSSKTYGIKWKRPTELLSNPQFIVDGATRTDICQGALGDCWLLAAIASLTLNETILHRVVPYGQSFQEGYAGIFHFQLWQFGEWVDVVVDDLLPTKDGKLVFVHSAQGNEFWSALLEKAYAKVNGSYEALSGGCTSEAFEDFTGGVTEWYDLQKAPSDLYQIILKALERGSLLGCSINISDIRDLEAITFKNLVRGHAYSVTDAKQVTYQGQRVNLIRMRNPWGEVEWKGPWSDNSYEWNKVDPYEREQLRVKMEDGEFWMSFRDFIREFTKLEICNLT
calpastatin repeat 1 K176Δ mutant, sequence (P27321 whole entry, looked up, stated change not applied): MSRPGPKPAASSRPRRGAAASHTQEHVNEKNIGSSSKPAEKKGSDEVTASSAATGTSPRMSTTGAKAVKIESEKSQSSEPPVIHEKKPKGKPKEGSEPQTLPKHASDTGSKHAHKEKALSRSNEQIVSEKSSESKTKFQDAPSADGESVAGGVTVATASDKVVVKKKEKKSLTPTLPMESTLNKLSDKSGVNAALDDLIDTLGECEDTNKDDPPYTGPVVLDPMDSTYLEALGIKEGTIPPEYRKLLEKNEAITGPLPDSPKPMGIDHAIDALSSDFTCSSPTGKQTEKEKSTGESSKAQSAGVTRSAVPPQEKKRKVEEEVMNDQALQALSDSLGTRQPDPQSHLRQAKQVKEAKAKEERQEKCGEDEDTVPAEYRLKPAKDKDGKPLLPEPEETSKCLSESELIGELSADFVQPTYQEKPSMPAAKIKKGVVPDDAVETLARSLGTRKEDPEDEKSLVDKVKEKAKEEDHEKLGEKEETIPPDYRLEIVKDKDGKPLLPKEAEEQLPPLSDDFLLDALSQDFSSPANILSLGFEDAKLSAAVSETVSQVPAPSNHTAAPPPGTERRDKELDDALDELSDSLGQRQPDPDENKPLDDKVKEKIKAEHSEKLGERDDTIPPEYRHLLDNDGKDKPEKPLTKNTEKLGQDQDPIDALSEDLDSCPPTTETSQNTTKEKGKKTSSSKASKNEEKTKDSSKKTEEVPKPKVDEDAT
calpastatin repeat 1 K176/E177Δ mutant, sequence (P27321 whole entry, looked up, stated change not applied): as above
calpastatin repeat 1 E177Δ mutant, sequence (P27321 whole entry, looked up, stated change not applied): as above

Molecule: Asp^163-Gly^174: N-terminal peptide of the 27-residue region B peptide, human sequence (Betts & Anagli 2004) (TLGGPEETEEEN; UniProt P20810 163-174, looked up, fragment)
- calpain inhibition when the intact 27-residue peptide is replaced by N- and C-terminal peptides [1]: abolished

Molecule: m-calpain (catalytically active heterodimer used in hydrolysis and autolysis assays)
- autolysis / proteolysis of the complex (SDS-PAGE) [2]: all mutants succumbed to proteolysis within the kink
- autolysis / proteolysis of the complex (SDS-PAGE) [3]: all mutants succumbed to proteolysis within the kink
- autolysis / proteolysis of the complex (SDS-PAGE) [4]: all mutants succumbed to proteolysis within the kink

B1: repeat 1: 86-residue rat calpastatin inhibitory repeat 1 (residues 134-219), expressed in E. coli (protein, UniProt P27321 134-219, looked up, fragment)
chain: SKTKFQDAPSADGESVAGGVTVATASDKVVVKKKEKKSLTPTLPMESTLNKLSDKSGVNAALDDLIDTLGECEDTNKDDPPYTGPV
modifications: inhibitory repeat 1
- IC50 values toward m-calpain (in words) [6]: low nanomolar
- IC50 [7]: 155 ± 16.3 µM

B2: Peptide B1 Ac-…-NH2 (peptide)
peptide: Ac-ALGIKEGTIPPEYRKLLE-NH2
- IC50 of inhibition of substrate hydrolysis by m-calpain [8]: 0.41 µM

B3: R417A: rat m-calpain with R417A substitution in DIII of the 80 kDa subunit (protein, UniProt Q07009 20-700; Q64537 1-270, looked up, variant R417A)
Calpain-2 catalytic subunit: SHERAIKYLNQDYETLRNECLEAGALFQDPSFPALPSSLGFKELGPYSSKTRGIEWKRPTEICADPQFIIGGATRTDICQGALGDCWLLAAIASLTLNEEILARVVPLDQSFQENYAGIFHFQFWQYGEWVEVVVDDRLPTKDGELLFVHSAEGSEFWSALLEKAYAKINGCYEALSGGATTEGFEDFTGGIAEWYELRKPPPNLFKIIQKALEKGSLLGCSIDITSAADSEAVTYQKLVKGHAYSVTGAEEVESSGSLQKLIRIRNPWGQVEWTGKWNDNCPSWNTVDPEVRANLTERQEDGEFWMSFSDFLRHYSRLEICNLTPDTLTCDSYKKWKLTKMDGNWRRGSTAGGCRNYPNTFWMNPQYLIKLEEEDEDDEDGERGCTFLVGLIQKHRARQRKMGEDMHTIGFGIYEVPEELTGQTNIHLSKNFFLTTRARERSDTFINLREVLNRFKLPPGEYVLVPSTFEPHKNGDFCIRVFSEKKADYQTVDDEIEANIEEIEANEEDIGDGFRRLFAQLAGEDAEISAFELQTILRRVLAKREDIKSDGFSIETCKIMVDMLDEDGSGKLGLKEFYILWTKIQKYQKIYREIDVDRSGTMNSYEMRKALEEAGFKLPCQLHQVIVARFADDELIIDFDNFVRCLVRLEILFKIFKQLDPENTGTIQLDLISWLSFSVL
Calpain small subunit 1: MFLVNSFLKGGGGGGGGGGLGGGLGNVLGGLISGAAGGGGGGGGGGGMGLGGGGGGGGTAMRILGGVISAISEAAAQYNPEPPPPRSHYSNIEANESEEERQFRKLFVQLAGDDMEVSATELMNILNKVVTRHPDLKTDGFGIDTCRSMVAVMDSDTTGKLGFEEFKYLWNNIKKWQGIYKRFDTDRSGTIGSNELPGAFEAAGFHLNQHIYSMIIRRYSDETGNMDFDNFISCLVRLDAMFRAFRSLDKNGTGQIQVNIQEWLQLTMYS
- m-calpain activity after substitution (fraction of wild type) [9]: one-half

B4: R469A: rat m-calpain with R469A substitution in DIII of the 80 kDa subunit (protein, UniProt Q07009 20-700; Q64537 1-270, looked up, variant R469A)
Calpain-2 catalytic subunit: B3 Calpain-2 catalytic subunit with A398R, R450A
Calpain small subunit 1: B3 Calpain small subunit 1
- Ca2+ requirement [9]: doubled
- decrease in m-calpain activity [9]: > 60 fold

B5: R420A: rat m-calpain with R420A substitution in DIII of the 80 kDa subunit (protein, UniProt Q07009 20-700; Q64537 1-270, looked up, variant R420A)
Calpain-2 catalytic subunit: B3 Calpain-2 catalytic subunit with A398R, R401A
Calpain small subunit 1: B3 Calpain small subunit 1
- Ca2+ requirement [9]: doubled
- m-calpain activity after substitution (fraction of wild type) [9]: one-quarter

B6: calpastatin: 72 kDa endogenous calpain inhibitor with L domain and four 15-kDa inhibitory repeats (protein, listed as Rattus norvegicus)
chain: MESTLNKLSDKSGVNAALDDLIDTLGECEDTNKDDPPYTGPVVLDPMDSTYLEALGIKEGTIPPEYRKLLEKNEAITGPLPDSPKPMGIDHAIDALSSDFTCSSPTGKQTEKEKSTGESS
- inhibition of calpain ([6]; FIG. 7 legend, concerted binding to peripheral domains and active site): low-nanomolar
- affinity of inhibition of heterodimeric calpains [10]: nanomolar

B7: Peptide B1 Ac-ALGIKEGTIPPEYRKLLE-NH2 (peptide)
peptide: Ac-ALGIKEGTIPPEYRKLLE-NH2
- IC50 of inhibition of µI-II activity [11]: 24.5 µM

The next lines start with the values.

- IC50 of inhibition of µI-II activity [5]: 80.5 µM
Molecule: calpastatin repeat 1 fragment AB (57 residues, ending at Lys190) (from UniProt P27321 134-190) (peptide)

- IC50 values toward m-calpain (in words) [6]: low nanomolar
- IC50 [7]: 80.5 ± 10.2 µM
Molecule: AB: 57-residue calpastatin repeat 1 fragment with regions A and B, ending at Lys190 (SKTKFQDAPSADGESVAGGVTVATASDKVVVKKKEKKSLTPTLPMESTLNKLSDKSG)

- IC50 ([6]; mean ±s.e.m.): 0.41 ± 0.08 µM
Molecule: Ac-ALGIKEGTIPPEYRKLLE-NH2 [peptide B1, Ac-ALGIKEGTIPPEYRKLLE-NH2]

- IC50 of inhibition of µI-II activity [5]: 122 µM
Molecule: calpastatin repeat 1 fragment BC (57 residues, Asp163-Thr219) (from UniProt P27321 163-219) (peptide)

- IC50 of inhibition of µI-II activity [5]: 155 µM
Molecule: rat calpastatin inhibitory repeat 1, short construct Ala134-Thr219 (86 residues) (from UniProt P27321 134-219)
